Assay [1] addresses ER β (Homo sapiens, UniProt Q92731). Description: Phage ELISA fingerprint: binding of peptide phage to immobilized ER β in the presence of modulators (Table 14B). Background: An ELISA detects its analyte on a solid surface through an enzyme-linked reagent.
For assay [2], the target named is T1, ER α (UniProt P03372 1-595, limits assumed).
T1 construct: also called estrogen receptor α; ERα-ERE
T1 sequence (looked up): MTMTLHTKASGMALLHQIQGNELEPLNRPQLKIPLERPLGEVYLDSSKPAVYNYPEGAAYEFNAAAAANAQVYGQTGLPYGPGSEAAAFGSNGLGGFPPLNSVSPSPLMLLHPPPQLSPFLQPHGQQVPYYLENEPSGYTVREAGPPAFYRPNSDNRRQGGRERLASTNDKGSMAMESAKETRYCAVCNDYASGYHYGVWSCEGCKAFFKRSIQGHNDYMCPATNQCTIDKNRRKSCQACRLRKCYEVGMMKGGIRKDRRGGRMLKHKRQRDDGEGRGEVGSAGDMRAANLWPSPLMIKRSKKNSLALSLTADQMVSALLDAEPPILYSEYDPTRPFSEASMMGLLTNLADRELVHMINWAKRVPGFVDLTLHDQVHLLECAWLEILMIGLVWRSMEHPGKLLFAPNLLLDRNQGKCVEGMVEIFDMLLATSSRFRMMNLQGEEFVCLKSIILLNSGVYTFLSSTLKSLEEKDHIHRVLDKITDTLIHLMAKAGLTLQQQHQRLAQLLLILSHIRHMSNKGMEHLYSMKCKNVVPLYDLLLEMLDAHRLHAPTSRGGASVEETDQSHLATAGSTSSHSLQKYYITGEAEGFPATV
Description: phage isolated on ERα on plastic; ICI 182,780.

Assay [3] has as its target T2, Gal4 transcriptional activation domain (AD) fused in frame with AR (yeast, UniProt P10275 1-920, limits assumed).
T2 sequence (looked up): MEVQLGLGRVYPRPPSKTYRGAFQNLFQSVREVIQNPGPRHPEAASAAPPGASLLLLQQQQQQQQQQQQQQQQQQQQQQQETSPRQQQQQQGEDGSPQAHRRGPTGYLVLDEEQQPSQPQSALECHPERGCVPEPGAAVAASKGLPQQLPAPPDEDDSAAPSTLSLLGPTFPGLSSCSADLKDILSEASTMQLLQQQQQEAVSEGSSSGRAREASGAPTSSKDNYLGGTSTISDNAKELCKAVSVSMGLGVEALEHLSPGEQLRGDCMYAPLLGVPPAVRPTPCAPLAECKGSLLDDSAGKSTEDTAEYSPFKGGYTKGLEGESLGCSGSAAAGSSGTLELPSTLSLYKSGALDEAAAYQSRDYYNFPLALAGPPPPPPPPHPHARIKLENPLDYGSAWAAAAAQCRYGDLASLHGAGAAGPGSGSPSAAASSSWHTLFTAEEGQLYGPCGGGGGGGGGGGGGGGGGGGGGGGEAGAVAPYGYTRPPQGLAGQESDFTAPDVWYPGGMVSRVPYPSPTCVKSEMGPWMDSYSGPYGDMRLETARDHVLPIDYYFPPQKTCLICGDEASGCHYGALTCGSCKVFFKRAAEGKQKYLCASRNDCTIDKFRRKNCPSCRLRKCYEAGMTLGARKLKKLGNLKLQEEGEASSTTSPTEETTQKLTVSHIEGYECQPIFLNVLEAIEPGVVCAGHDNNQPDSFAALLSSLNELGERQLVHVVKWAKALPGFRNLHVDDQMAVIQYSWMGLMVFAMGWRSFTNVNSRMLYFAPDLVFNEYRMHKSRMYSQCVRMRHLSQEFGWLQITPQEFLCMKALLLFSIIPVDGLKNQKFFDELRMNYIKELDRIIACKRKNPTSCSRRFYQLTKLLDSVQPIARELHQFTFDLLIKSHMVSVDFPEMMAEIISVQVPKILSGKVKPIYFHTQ
Put plainly: cell-based or functional assay.

Assay [4] concerns the target T2, Gal4 transcriptional activation domain …. Description: cell-based or functional assay. The source holds these as a separate data set.
Assay [5] addresses T1, ER α. Description: phage isolated on ERα-ERE; Tamoxifen.
The target in assay [6] is T1, ER α. Put plainly: phage isolated on ERα-ERE; Buffer.
For assay [7], the target named is T3, ER β (UniProt Q92731 1-530, limits assumed).
T3 construct: In vitro; also called estrogen receptor β; ERβ-ERE
Put plainly: peptide probe binding to ERβ, Raloxifene.

Assay [8] deals with T3, ER β. Put plainly: peptide probe binding to ERβ, Clomiphene.
Assay [9] concerns the target T3, ER β. Put plainly: peptide probe binding to ERβ, Estriol.

No end group written: not given here.

T3 sequence (Q92731 whole entry): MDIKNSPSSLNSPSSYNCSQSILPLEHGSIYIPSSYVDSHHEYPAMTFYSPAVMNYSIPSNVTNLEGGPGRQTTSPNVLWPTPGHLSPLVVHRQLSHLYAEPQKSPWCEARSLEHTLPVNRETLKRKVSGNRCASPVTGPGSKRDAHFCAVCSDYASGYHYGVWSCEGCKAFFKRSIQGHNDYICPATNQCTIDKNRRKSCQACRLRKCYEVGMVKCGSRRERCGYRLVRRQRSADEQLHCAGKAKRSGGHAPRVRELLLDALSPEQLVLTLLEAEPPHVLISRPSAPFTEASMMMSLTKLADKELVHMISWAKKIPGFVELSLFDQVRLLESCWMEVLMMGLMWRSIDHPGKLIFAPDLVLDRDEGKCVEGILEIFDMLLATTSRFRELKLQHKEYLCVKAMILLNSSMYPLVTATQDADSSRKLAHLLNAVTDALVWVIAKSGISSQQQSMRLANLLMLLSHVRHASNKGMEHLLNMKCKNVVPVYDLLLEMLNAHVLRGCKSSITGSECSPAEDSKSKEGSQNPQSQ
Sequence of ER β (Homo sapiens, UniProt Q92731) (Q92731 whole entry, species assumed): as the sequence (Q92731 whole entry) above

Regarding SRLPPSVFSMCGSEVCLSR [9Tβ], the “Class Specific Fingerprint on ERβ: phage binding, Nafoxidine present” value with ER β [1] (nafoxidine 10 μM) came to 5.
In the case of SSNHQSSRLIELLSR [#4 ER./E2], the “Class Specific Fingerprint on ERβ: phage binding, 4-OH Tamoxifen present” value with ER β [1] (4-OH tamoxifen 1 μM) was 0. The “Class Specific Fingerprint on ERβ: phage binding, ICI 182,780 present” value in the assay with ER β [1] (ICI 182,780 1 μM) worked out at 0. Further, in the assay with ER β [1] (clomiphene 10 μM), the “Class Specific Fingerprint on ERβ: phage binding, Clomiphene present” value is recorded as 0. Also, in the assay with ER β [1] (raloxifene 1 μM), the “Class Specific Fingerprint on ERβ: phage binding, Raloxifene present” value worked out at 0.
In the case of SSTATALRDRLAYSR [6PI], the binding result in the assay with ER α [2] is on record as “binds”.
On to SSDCESLTSYPHLKALCSR [5PI], for which the binding result with ER α [2] is “binds”.

B1: B22F6 (peptide)
chain: MKLLSSIEQACDICRLKKLKCSKEKPKCAKCLKNNWECRYSPKTKRSPLTRAHLTEVESRLERLEQLFLLIFPREDLDMILKMDSLQDIKALLTGLFVQDNVNKDAVTDRLASVETDMPLTLRQHRISATSSSEESSNKGQRQLTVSEFLSGLEMEVVLWHYGRLDLQPS
In the case of B1, in [3], the “β-galactosidase activity (yeast two-hybrid), CPA” value (“β-galactosidase activity … CPA” below) was 1.23; the “β-galactosidase activity (yeast two-hybrid), DHT” value (“β-galactosidase activity … DHT” for short) came out at 7.85; the “β-galactosidase activity (yeast two-hybrid), MPA” value (from here on “β-galactosidase activity … MPA”) was found to be 4.56; the “β-galactosidase activity (yeast two-hybrid), No Lig” value (“β-galactosidase activity … No Lig” for short) was 0.794. For the same molecule, in [3], the “β-galactosidase activity (yeast two-hybrid), RU” value (“β-galactosidase activity … RU” for short) was found to be 1.2 and the “β-galactosidase activity (yeast two-hybrid), Test” value (“β-galactosidase activity … Test” for short) turned out to be 7.77. Besides, in [4], the “Fold induction (yeast two-hybrid)” value came out at 10 fold.
Take SRTLQLDWGTLYSR [T3-1]: the binding result with ER α [5] is given as “binds”.
Turning to SSRTAEDYCFFADDYWCSR (also called 16E) [3PI], in the assay with ER α [2], the binding result was “binds”.

B2: M7B1 (peptide)
chain: MKLLSSIEQACDICRLKKLKCSKEKPKCAKCLKNNWECRYSPKTKRSPLTRAHLTEVESRLERLEQLFLLIFPREDLDMILKMDSLQDIKALLTGLFVQDNVNKDAVTDRLASVETDMPLTLRQHRISATSSSEESSNKGQRQLTVSEFVGWFTGMAACSYAPDLDLQPS
On to B2, for which, in [3], the “β-galactosidase activity … CPA” value is 1.69; the “β-galactosidase activity … DHT” value amounted to 3.93; the “β-galactosidase activity … MPA” value came out at 6.9; the “β-galactosidase activity … No Lig” value is 0. In [3], the “β-galactosidase activity … RU” value is 0.1 and the “β-galactosidase activity … Test” value amounted to 4.5. Besides, the “Fold induction (yeast two-hybrid)” value in assay [4] was more than 2 fold.
Turning to SRSYHGEWGVWTLSR [7B], in the assay with ER α [6], the binding result is listed as “binds”.
On the same count and under the same terms, the entry for SRNWDWAALELLPYPHPSR [9B] is “binds”.

B3: B18C4 (peptide)
chain: MKLLSSIEQACDICRLKKLKCSKEKPKCAKCLKNNWECRYSPKTKRSPLTRAHLTEVESRLERLEQLFLLIFPREDLDMILKMDSLQDIKALLTGLFVQDNVNKDAVTDRLASVETDMPLTLRQHRISATSSSEESSNKGQRQLTVSEFDSPWVWFGGEPGLNLLDLQPS
With B3, in [3], the “β-galactosidase activity … CPA” value turned out to be 1.53; the “β-galactosidase activity … DHT” value is 1.43; the “β-galactosidase activity … MPA” value was 1.44; the “β-galactosidase activity … No Lig” value stood at 1.12. Moreover, in [3], the “β-galactosidase activity … RU” value worked out at 1.5 and the “β-galactosidase activity … Test” value is 0.969. Further, the “Fold induction (yeast two-hybrid)” value in [4] is 1 fold.
In the case of SSYWDGSWRRKETCVSCSR [2PI], in the assay with ER α [2], the binding result was “binds”.

B4: M4D1 (peptide)
chain: MKLLSSIEQACDICRLKKLKCSKEKPKCAKCLKNNWECRYSPKTKRSPLTRAHLTEVESRLERLEQLFLLIFPREDLDMILKMDSLQDIKALLTGLFVQDNVNKDAVTDRLASVETDMPLTLRQHRISATSSSEESSNKGQRQLTVSEFRFPFHEMVREWESMGLERVRYAEP
As to B4, in [3], the “β-galactosidase activity … CPA” value was -0.0396; the “β-galactosidase activity … DHT” value worked out at 0.395; the “β-galactosidase activity … MPA” value came out at 1.7; the “β-galactosidase activity … No Lig” value stood at 0. Moreover, in assay [3], the “β-galactosidase activity … RU” value turned out to be 0.1 and the “β-galactosidase activity … Test” value is 0.134. Also, in assay [4], the “Fold induction (yeast two-hybrid)” value is more than 2 fold.

B5: M2H3 (peptide)
chain: MKLLSSIEQACDICRLKKLKCSKEKPKCAKCLKNNWECRYSPKTKRSPLTRAHLTEVESRLERLEQLFLLIFPREDLDMILKMDSLQDIKALLTGLFVQDNVNKDAVTDRLASVETDMPLTLRQHRISATSSSEESSNKGQRQLTVSEFRQSFVSEILGGGWLPLDLQPS
For the molecule B5, in [3], the “β-galactosidase activity … CPA” value was 8.59; the “β-galactosidase activity … DHT” value stood at 24.1; the “β-galactosidase activity … MPA” value came to 19.2; the “β-galactosidase activity … No Lig” value worked out at 2.53. In [3], the “β-galactosidase activity … RU” value turned out to be 6.8 and the “β-galactosidase activity … Test” value came to 26.6. In addition, the “Fold induction (yeast two-hybrid)” value in assay [4] was 10 fold.
With SRFEIWKPEPGCVSSLENWEPGKRVCSR [T2-10], the binding result with ER α [5] is “binds”.
With SSEACVGRWMLCEQLGVSR (also called β III; B3) [12B-β], the Equiv. is -71% in the assay with ER β [7], -61% with ER β [8] and 77% with ER β [9].
Turning to SSSTPGWWEWDWASR [1PI], the binding result with ER α [2] is “binds”.

B6: B8A10 (peptide)
chain: MKLLSSIEQACDICRLKKLKCSKEKPKCAKCLKNNWECRYSPKTKRSPLTRAHLTEVESRLERLEQLFLLIFPREDLDMILKMDSLQDIKALLTGLFVQDNVNKDAVTDRLASVETDMPLTLRQHRISATSSSEESSNKGQRQLTVSEFVNWDAVVPWSELVALLDLQPS
For the molecule B6, in assay [3], the “β-galactosidase activity … CPA” value turned out to be 0.395; the “β-galactosidase activity … DHT” value stood at 0.616; the “β-galactosidase activity … No Lig” value is 0.875; the “β-galactosidase activity … RU” value came to 0.4. Also, in assay [4], the “Fold induction (yeast two-hybrid)” value stood at 1 fold.
For the molecule SSDWCFGWGGWCASEAVSR (not fully specified; cysteine pairing not given here) [10B], in the assay with ER α [6], the binding result is reported as “binds”.
For the molecule SSRALALFPVGMESR [4PI], in the assay with ER α [2], the binding result is “binds”.
The same measure, in the same setting: the entry for SSGKTREHYREGTSR [7PI] is “binds”.

For the origin of these results see patent publication US20040043420A1, “Method of identifying conformation-sensitive binding peptides and uses thereof” (priority 2003, published 2004).
